# Reference: the RNAGym collection of RNA variant scans (doi:10.1021/acssynbio.7b00057)
# B1: Pistol ribozyme (parent)
# chain: GGGUCGUUGUUCCAUAAUCGCGUGGAUAUGGCACGCAAGUUUCUACCGGGCACCGUAAAUGUCCGACUGGAGCCGUUCGGGCGGCUAUAAACAGACCUCAGGCCCGAAGCGUGGCGGCACCUGCCGCCGGUGGUAAAAAAGAUCGGAAGAGCACACGUCU
# Variants of: B1
# Experiment: aptazyme ON/OFF ratio, guanine; higher = stronger switching; co-transcriptional cleavage with and without guanine
row,Variant,aptazyme ON/OFF ratio
1,U7A U8C G9C U11G C12G,1.12
2,U7A U8C G9C U11G C12A,1.08
3,U7A U8C G9C U11G C12U,1.28
4,U7A U8C G9C U11C C12A C13A,1.06
5,U7A U8C G9C U11C C12A C13G,1.04
6,U7A U8C G9C U11C C12A C13U,1.04
7,U7A U8C G9U U10C U11C C12G C13G,1.22
8,U7A U8C G9U U10C U11C C12G C13U,1.04
9,U7A U8C G9U U10C U11C C12G C13A,1.04
10,U7A U8C G9U U10G,3.16
11,U7A U8C G9U U10C,1.55
12,U7A U8C G9U U10A,1.4
13,U7A U8C G9U U10A U11A C12A C13A,1.17
14,U7A U8C G9U U10A U11A C12A C13U,1.22
15,U7A U8C G9U U10A U11A C12A C13G,1.22
16,U7A U8C G9U U10C C12G C13U,1.51
17,U7A U8C G9U U10C C12G C13A,1.13
18,U7A U8C G9U U10C C12G C13G,1.33
19,U7A U8C G9U U10C U11G C13U,1.25
20,U7A U8C G9U U10C U11G C13A,1.17
21,U7A U8C G9U U10C U11G C13G,1.31

row,Variant,aptazyme ON/OFF ratio
1,U7A U8C G9U U10A U11G C12G C13U,1.18
2,U7A U8C G9U U10A U11G C12G C13G,1.26
3,U7A U8C G9U U10A U11G C12G C13A,1.2
4,U7A U8C G9U U10A C13A,1.18
5,U7A U8C G9U U10A C13G,1.08
6,U7A U8C G9U U10A C13U,1.15
7,U7A U8C G9U U10G U11C C12A,1.25
8,U7A U8C G9U U10G U11C C12G,1.32
9,U7A U8C G9U U10G U11C C12U,1.12
10,U7A U8C G9U U10C C12A C13A,1.14
11,U7A U8C G9U U10C C12A C13U,1.26
12,U7A U8C G9U U10C C12A C13G,1.29
13,U7A U8C G9U U10G U11A C12G C13A,1.22
14,U7A U8C G9U U10G U11A C12G C13U,1.21
15,U7A U8C G9U U10G U11A C12G C13G,0.993
16,U7A U8C G9U U10A U11A C12U C13G,1.12
17,U7A U8C G9U U10A U11A C12U C13U,1.16
18,U7A U8C G9U U10A U11A C12U C13A,1.21
19,U7A U8C G9U U11G C12G,1.16
20,U7A U8C G9U U11G C12U,1.35
21,U7A U8C G9U U11G C12A,1.09

row,Variant,aptazyme ON/OFF ratio
1,U7A U8C U10A C12A,1.24
2,U7A U8C G9U U10A U11C C12U C13A,1.1
3,U7A U8C G9U U10A U11C C12U C13U,1.18
4,U7A U8C G9U U10A U11C C12U C13G,1.12
5,U7A U8C G9U U10G U11G C12U C13U,1.16
6,U7A U8C G9U U10G U11G C12U C13A,1.07
7,U7A U8C G9U U10G U11G C12U C13G,1.11
8,U7A U8C G9U U10C U11A C12A,1.14
9,U7A U8C G9U U10C U11A C12U,1.13
10,U7A U8C G9U U10C U11A C12G,1.13
11,U7A U8C G9U U10C U11A C13U,1.12
12,U7A U8C G9U U10C U11A C13G,1.09
13,U7A U8C G9U U10C U11A C13A,1.1
14,U7A U8C G9C U10G U11C C12G C13A,1.18
15,U7A U8C G9C U10G U11C C12G C13U,1.12
16,U7A U8C G9C U10G U11C C12G C13G,1.18
17,U7A U8C G9U U10A U11G C12A C13G,1.2
18,U7A U8C G9U U10A U11G C12A C13U,1.1
19,U7A U8C G9U U10A U11G C12A C13A,1.08
20,U7A U8C G9U U10C U11G,1.22
21,U7A U8C G9U U10C U11A,1.23

row,Variant,aptazyme ON/OFF ratio
1,U7A U8C G9U U10C U11C,0.995
2,U7A U8C G9U U10G C12A C13U,1.07
3,U7A U8C G9U U10G C12A C13G,1.18
4,U7A U8C G9U U10G C12A C13A,1.45
5,U7A U8C G9U U11G C12U C13A,1.22
6,U7A U8C G9U U11G C12U C13G,1.14
7,U7A U8C G9U U11G C12U C13U,1.28
8,U7A U8C G9U U10A U11A,1.37
9,U7A U8C G9U U10A U11C,1.01
10,U7A U8C G9U U10A U11G,1.31
11,U7A U8C G9U C12G C13U,1.37
12,U7A U8C G9U C12G C13G,1.16
13,U7A U8C G9U C12G C13A,1.23
14,U7A U8C G9C U11A C12A C13U,1.05
15,U7A U8C G9C U11A C12A C13G,1.08
16,U7A U8C G9C U11A C12A C13A,1.07
17,U7A U8C G9C U11G,1.09
18,U7A U8C G9C U11C,1
19,U7A U8C G9C U11A,1.11
20,U7A U8C G9U U10G C12U C13G,1.72
